Results on ten molecules are retold here after US20250197490A1 (HBM ALPHA THERAPEUTICS, published 2025).

Substitutions are numbered along the chain they refer to.

Assay [1] addresses T1, biotinylated CRH (human and mouse, UniProt P01143 145-185 (rat entry), not fully specified; biotin; which end is not stated for the result (NT-biotin and CT-biotin forms were used)).
T1 construct: also called biotin-CRH; CRH (NT biotin)
T1 peptide: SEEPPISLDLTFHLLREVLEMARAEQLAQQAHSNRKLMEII
The assay can be described thus: ELISA, CRH (NT biotin). Here is the method: (§1) Streptavidin (Thermo, Cat: 21125) was diluted in PBS to a concentration of 2 μg/ml. 100 μl of diluted streptavidin was added per well to ELISA microplates, and the plates were incubated overnight at 4° C. […] Subsequently, plates were washed and incubated with HRP-conjugated goat anti-human IgG (H+L) antibody (Jackson, Cat: 109-035-088) at 37° C. for 1 hour. 100 μL of 3,3′,5,5′-tetramethylbenzidine (TMB) substrate (Biopanda, Cat: TMB-S-003) was added, and the plates were incubated at room temperature for 15 minutes. 100 μL of ELISA stopping solution (Solarbio, Cat #: C1058) was added to terminate the reaction, and the optical density at 450 nm (OD450 nm) was determined by an ELISA plate reader (Molecular Devices, Spectra max 384 plus).

The target of assay [2] is T2, CRH (C-Terminal Region, NT Biotin) (N-terminal Biotin-K; C-terminal NH2).
T2 construct: central region plus C-terminal region of CRH; also called C-Terminal CRH; C-Ter-CRH
T2 peptide: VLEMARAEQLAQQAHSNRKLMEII
Kind of assay: ELISA, CRH C-terminal region peptide (NT biotin). The procedure: as §1
A general note: In an ELISA, binding on a coated surface is turned into a signal by an enzyme label.

Assay [3] has as its target T3, human UCN1 peptide, biotinylated (human, UniProt P55089 83-122, biotin at N- or C-terminus).
T3 construct: also called hUCN1 (NT Biotin); hUCN1 (CT Biotin)
T3 peptide (looked up): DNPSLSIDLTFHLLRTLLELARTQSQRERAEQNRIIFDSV
The assay can be described thus: ELISA, hUCN1 (CT biotin). Here is the method: as §1

Assay [4] addresses T4, CRH (Central Region, CT Biotin) (C-terminal K-Biotin).
T4 construct: also called Central CRH
T4 peptide: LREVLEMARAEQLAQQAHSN
Kind of assay: ELISA, CRH central region peptide (CT biotin). Here is the method:
as §1

Assay [5] concerns the target T5, CRH (Central Region, NT Biotin) (N-terminal Biotin-K; C-terminal NH2).
T5 construct: also called Central CRH
T5 peptide: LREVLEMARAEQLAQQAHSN
The assay can be described thus: ELISA, CRH central region peptide (NT biotin). Here is the method:
as §1

The target of assay [6] is T6, human UCN2 peptide, biotinylated (human, UniProt Q96RP3 72-109, limits assumed, biotin at N- or C-terminus).
T6 construct: also called hUCN2 (NT Biotin); hUCN2 (CT Biotin)
T6 peptide (looked up): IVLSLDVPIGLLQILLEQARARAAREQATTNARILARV
Kind of assay: ELISA, hUCN2 (NT biotin) and (CT biotin). The procedure:
(§2) Streptavidin (Thermo, Cat: 21125) was diluted in PBS with a concentration of 2 μg/mL. 100 μL of diluted streptavidin was added per well to ELISA microplates, and the plates were incubated overnight at 4° C. Plates were blocked with ELISA blocking solution (containing 2% w/v BSA, 0.05% (v/v) Tween-20, pH 7.4 PBS buffer) at 37° C. for 1 hour, and then incubated with either 1 μg/mL hUCN1 (NT Biotin), hUCN1 (CT Biotin), hUCN2 (NT Biotin), hUCN2 (CT Biotin), hUCN3 (NT Biotin), or hUCN3 (CT Biotin) for 1 hour at 37° C. […] Plates were subsequently washed and incubated with HRP-conjugated goat anti-human IgG (H+L) antibody (Jackson, Cat: 109-035-088) at 37° C. for 1 hour. 100 μl of TMB Substrate (Biopanda, Cat: TMB-S-003) was added, and the plates were incubated at room temperature for 15 minutes. 100 μL of ELISA stopping solution (Solarbio, Cat #: C1058) was then added to terminate the reaction, and the OD450 nm was determined by an ELISA plate reader (Molecular Devices, Spectra max 384 plus).

Assay [7] has as its target T3, human UCN1 peptide, biotinylated. Kind of assay: ELISA, hUCN1 (NT biotin). Here is the method:
as §1

Assay [8] concerns the target T1, biotinylated CRH. The assay can be described thus: ELISA, CRH (CT biotin). The procedure:
as §1

The target of assay [9] is T3, human UCN1 peptide, biotinylated. Kind of assay: ELISA, hUCN1 (NT biotin) and (CT biotin), mAb at 100 and 10 nM. Here is the method: as §2
Assay [10] concerns the target T1, biotinylated CRH. Kind of assay: ELISA, CRH (NT biotin).
Assay [11] has as its target T7, N-Terminal CRH peptide (N-terminal region plus central region, CT biotin) (human and mouse, C-terminal K-Biotin).
T7 construct: also called N-Ter-CRH
T7 peptide: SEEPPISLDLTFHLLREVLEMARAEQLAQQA
Kind of assay: ELISA, N-Ter-CRH (CT-biotin) on streptavidin. Here is the method: as §1

Assay [12] has as its target T8, corticotropin-releasing hormone (CRH) peptide (human and mouse, UniProt P01143 145-185 (rat entry), not fully specified).
T8 peptide: T1 peptide
The assay can be described thus: cell-based or functional assay.

Assay [13] deals with T9, human UCN3 peptide, biotinylated (human, UniProt Q969E3 120-157, biotin at N- or C-terminus).
T9 construct: also called hUCN3 (NT Biotin); hUCN3 (CT Biotin)
T9 peptide (looked up): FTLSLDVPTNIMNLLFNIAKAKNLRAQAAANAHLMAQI
Kind of assay: ELISA, hUCN3 (NT biotin) and (CT biotin). Here is the method:
as §2

For assay [14], the target named is T8, corticotropin-releasing hormone (CRH) …. The assay can be described thus: cell-based or functional assay.

What is called EC50 (read off the curve) is the concentration that produces a half-maximal response. Low values mean greater potency, high ones weaker potency. For orientation: EC50 means the concentration giving half of the maximal effect.

B1: PR302341-34 (antibody, human IgG1, kappa, V domains shown)
VH: QVQLVQSGAEVKKPGASVKVSCKASGYTFTDYFMKWVRQAPGQGLEWMGVINPNQGDIFYNQKFKGRVTMTVDKSISTAYMELSRLRSDDTAVYYCARGTDRALFAYWGQGTLVTVSS
VL: DVVMTQSPLSLPVTLGQPASISCRSGQSIVHSDANTYLEWYQQRPGQSPRLLIYKVSNRFSGVPDRFSGSGSGTDFTLKISRVEAEDLGVYYCFQGSHIPWTFGGGTKVEIKR
Consider B1, for which the “EC50 (read off the curve)” value with biotinylated CRH [1] was ~0.03 nM; in [3], ~0.03 nM; in assay [7], ~0.02 nM; with biotinylated CRH [8] it was ~0.03 nM. In addition, the binding result in assay [2], in assay [4], in assay [5] and in [6] was “no binding (tested: 100 nM)” each time.

B2: PR302341-28 (antibody, human IgG1, kappa, V domains shown)
VH: B1 VH
VL: B1 VL with A34G
On to B2, for which the binding result in assay [6] was “no binding (tested: 100 nM)”; in assay [9], “binds”.

B3: PR302341-55 (antibody, human IgG1, kappa, V domains shown)
VH: B1 VH with G44R, Q55N, G56A, M70I, V72R, K74T, I76A, R85S, D89E
VL: B1 VL with A34G
Regarding B3, the results for the binding result in assay [6] and in assay [9] were “no binding (tested: 100 nM)” and “binds”, respectively.

B4: PR302341-48 (antibody, human IgG1, kappa, V domains shown)
VH: B1 VH with I76T, R85S, D89E
VL: B1 VL with S7T, L11S, S48P, S72A
As for B4, the binding result in assay [6] is recorded as “no binding (tested: 100 nM)”; in assay [9], “binds”.

B5: PR302341-60 (antibody, human IgG1, kappa, V domains shown)
VH: B1 VH with G44R, M70I, V72R, K74T, I76A, R85S, D89E
VL: B1 VL
For B5, the binding result in assay [6] is given as “no binding (tested: 100 nM)”; in assay [9] it was “binds”.

B6: PR301790 (antibody, human IgG1, kappa, V domains shown)
VH: EMKLEESGGGLVQPGGSMKLSCVASGFTFSNYWMNWVRQSPEKGLEWVAEIRLKSNNYATHYAESVKGRFTISRDDSKSSVYLQMNNLRAEDTGIYYCTIGTLVYWGQGTLVTVSA
VL: DIVLTQSPASLAVSLGQRATISCRASQSVSTSSYNYMHWYQQKPGQPPKLLIKFASNLESGVPARFSGSGSGTDFTLNIHPVEEEDTATFYCQHSWEIPYTFGGGTKLEIKR
Consider B6, for which, in the assay with biotinylated CRH [10], the binding result is listed as “binds”.

B7: PR301803 (antibody, human IgG1, kappa, V domains shown)
VH: B6 VH with M2V, S30N, V66L, I100V
VL: B6 VL with A12V, S33T
B7: the binding result in the assay with biotinylated CRH [10] is “binds”.

B8: PR302064 (antibody, human IgG1, kappa, V domains shown)
VH: EMQLVESGGGLVKPGGSLRLSCAASGFTFSNYWMNWVRQAPGKGLEWVAEIRLKSNNYATHYAESVKGRFTISRDDSKSTVYLQMNSLKTEDTAVYYCTVGTLVYWGQGTLVTVSS
VL: DIVLTQSPDSLAVSLGERATINCRASQSVSTSTYNYMHWFQQKPGQPPKLLIKFASNLESGVPDRFSGSGSGTDFTLTISSLQAEDTAVYYCQHSWEIPYTFGQGTKLEIKR
Take B8: the EC50 in assay [11] came to 0.022 nM. In addition, the “EC50 (read off the curve)” value with biotinylated CRH [1] was ~0.03 nM; in assay [3], ~0.2 nM; in [7] it was ~0.1 nM; with biotinylated CRH [8], ~0.03 nM. For the same molecule, the binding result in assay [2], in assay [4], in assay [5], in [6] and in assay [13] was “no binding (tested: 100 nM)” throughout. The “unlabelled nM value (Table 5 matrix; likely hCRHR1-Luc IC50 as in Tables 6-8)” value in assay [12] turned out to be 0.531 nM.

B9: PR302309-11 (antibody, human IgG1, kappa, V domains shown)
VH: QIQLVQSGSELKKPGASVKVSCKASGYTFTNYGMNWVRQAPGQGLEWMGWINTYTGEPIYTDDFKGRFVFSLDTSVSTAYLQISSLKAEDTAVYYCSRSTMITTGGVFAYWGQGTLVTVSS
VL: DIVMTQTPLSSPVTLGQPASISCRSSQTIVHSDGNTYLEWLQQRPGQPPRLLIYKVSNRFSGVPDRFSGSGAGTDFTLKISRVEAEDVGVYYCFQGSHVPWTFGGGTKVEIKR
As to B9, the EC50 in [11] is 0.028 nM. In addition, the “EC50 (read off the curve)” value in the assay with biotinylated CRH [1] was ~0.03 nM; in [3] it was ~0.4 nM; in [7], ~0.07 nM; with biotinylated CRH [8] it was ~0.03 nM. Besides, the binding result in assay [2], in [4], in assay [5], in assay [6] and in assay [13] was “no binding (tested: 100 nM)” throughout. Also, the “hCRHR1-Luc 0.5 nM CRH IC50” value in [14] was 2.12 nM.

B10: PR301780 (antibody, human IgG1, kappa, V domains shown)
VH: QIQLVQSGPELKKPGETVKISCKASGYTFTNFGLNWVKQAPGKGLKWMGWINTYTGEPTYTDDFKGRFAFSLETSASTAYLQINNLKKEDTATYFCARGTYRDDGAWFAYWGQGTLVTVSA
VL: DVLMTQTPLSLPVSLGDQASISCRSSQIIVHSNGNTYLEWYLQKPGQSPKLLIYKVSNRFSGVPDRFSGSGSGTDFTLKISRVEAEDLGVYHCFQGSHVPWTFGGGTKLEIKR
For B10, the binding result with biotinylated CRH [10] is “binds”.
